# Source: patent US20060058504A1, “Peptides capable of inducing attraction to the axonal growth and their use for treating neurodegenerative diseases” (Centre National de la Recherche Scientific (CNRS), priority 2002, published 2006)
# Numbering of substitutions follows the chain as printed. Numbers in names are those of the source. Entries after “also recorded” stand apart in the source; their conditions may differ. Where two headings read alike, the source gives them in different places.
# B1: A426D mutant L1Fc chimera (Fc fusion, UniProt P32004 20-1120, looked up)
# chain: IQIPEEYEGHHVMEPPVITEQSPRRLVVFPTDDISLKCEASGKPEVQFRWTRDGVHFKPKEELGVTVYQSPHSGSFTITGNNSNFAQRFQGIYRCFASNKLGTAMSHEIRLMAEGAPKWPKETVKPVEVEEGESVVLPCNPPPSAEPLRIYWMNSKILHIKQDERVTMGQNGNLYFANVLTSDNHSDYICHAHFPGTRTIIQKEPIDLRVKATNSMIDRKPRLLFPTNSSSHLVALQGQPLVLECIAEGFPTPTIKWLRPSGPMPADRVTYQNHNKTLQLLKVGEEDDGEYRCLAENSLGSARHAYYVTVEAAPYWLHKPQSHLYGPGETARLDCQVQGRPQPEVTWRINGIPVEELAKDQKYRIQRGALILSNVQPSDTMVTQCEARNRHGLLLANAYIYVVQLPDKILTADNQTYMAVQGSTAYLLCKAFGAPVPSVQWLDEDGTTVLQDERFFPYANGTLGIRDLQANDTGRYFCLAANDQNNVTIMANLKVKDATQITQGPRSTIEKKGSRVTFTCQASFDPSLQPSITWRGDGRDLQELGDSDKYFIEDGRLVIHSLDYSDQGNYSCVASTELDVVESRAQLLVVGSPGPVPRLVLSDLHLLTQSQVRVSWSPAEDHNAPIEKYDIEFEDKEMAPEKWYSLGKVPGNQTSTTLKLSPYVHYTFRVTAINKYGPGEPSPVSETVVTPEAAPEKNPVDVKGEGNETTNMVITWKPLRWMDWNAPQVQYRVQWRPQGTRGPWQEQIVSDPFLVVSNTSTFVPYEIKVQAVNSQGKGPEPQVTIGYSGEDYPQAIPELEGIEILNSSAVLVKWRPVDLAQVKGHLRGYNVTYWREGSQRKHSKRHIHKDHVVVPANTTSVILSGLRPYSSYHLEVQAFNGRGSGPASEFTFSTPEGVPGHPEALHLECQSNTSLLLRWQPPLSHNGVLTGYVLSYHPLDEGGKGQLSFNLRDPELRTHNLTDLSPHLRYRFQLQATTKEGPGEAIVREGGTMALSGISDFGNISATAGENYSVVSWVPKEGQCNFRFHILFKALGEEKGGASLSPQYVSYNQSSYTQWDLQPDTDYEIHLFKERMFRHQMAVKTNGTGRVRLPPAGFATE
# notes: not shown: immunoglobulin Fc, human
# B2: L120V: L1Fc chimera with missense mutation L120V in Ig domain 1 (protein)
# chain: B1 chain with L101V, D407A
# modifications: left off: a dimerising Fc or GST
# B3: E309K: L1Fc chimera with missense mutation E309K in Ig domain 3 (protein)
# chain: B1 chain with E290K, D407A
# modifications: left off: a dimerising Fc or GST
# B4: A426D: L1Fc chimera with missense mutation A426D in Ig domain 5 (protein)
# chain: B1 chain
# modifications: left off: a dimerising Fc or GST
# B5: H210Q mutant L1Fc chimera (Fc fusion, UniProt P32004 20-1120, looked up)
# chain: B1 chain with H191Q, D407A
# notes: as for B1
# What was measured:
# [1] = target: T1, wild-type L1Fc chimeric protein (human, UniProt P32004 20-1120); test: two-color FACS bead aggregation, mutant L1Fc beads with wild-type L1Fc beads, mixed aggregates at 30 min
# T1 construct: Produced in COS-7 cells, purified on protein A-Sepharose; in the two-color assay it was held on anti-human IgG coated beads; also called soluble L1; wt; not shown: immunoglobulin Fc, human (cross-linked with anti-human Fc antibodies)
# [2] = tested on: cortical axons repelled by Sema3A secreted from the ventral spinal cord; test: Co-culture of cortical slices and ventral spinal cord explants (axon guidance response to Sema3A); format: cell-based, mice; settings: for switching of Sema3A repulsion to attraction by L1Fc chimera: chimera 3 μg/ml in culture medium
# Method: Blocks of cortex were dissected from P0 (postnatal day 0) to P2 mice and cut into 250 μm thick slices with a McIlwain tissue chopper. The ventral part of the cervical spinal cord was dissected and cut into 250 μm thick slices. Co-culture of cortical slices and ventral spinal cord explants were performed in a three-dimensional plasma clot, as described previously (Castellani et al., 2000). Cortical slices were oriented in the plasma clot as indicated in FIG. 1B to give to axons equivalent chances to be deflected away or towards the spinal cord explant. Purified wild-type or mutant L1Fc chimeras were added to the culture medium (3 μg/ml). Inhibitors of the guanylyl cyclase (ODQ, 10^−5 M, Sigma) and NOS (7NI, […], Sigma) were added to the culture medium, either alone or with wild-type L1Fc (3 μg/ml). After one or two days in vitro (DIV), the cultures were fixed with 4% paraformaldehyde (PFA) and analyzed by phase contrast microscopy (Axiovert 35-M, Zeiss). A qualitative guidance index was attributed to the co-cultures, to assess the degree of repulsive (negative values) or attractive (positive values) effects (Castellani et al., 2000). The index ranged from −2 (when most fibers grew away from the spinal cord explant) to +2 (when most fibers grew towards the explant), with intermediate situations (index of −1 and +1 for moderate guidance effects). An index of zero was attributed to the cultures showing no preferential growth. Quantitative analysis of axon length and number of axons growing from cortical slices was performed as described previously (Castellani et al., 2000). A proximal and a distal region, each of them covering a 600 μm-piece of cortical tissue were determined for each culture. All fibers extending from these two regions were counted and the length of the three longest fibers was measured, using computer analysis software (Visiolab 2000, Biocom). Immunofluorescence labeling of axons was performed using the mouse anti-phosphorylated neurofilament antibody SMI31 (Stemberger and Meyer Inc.), and Texas red-conjugated secondary anti-mouse antibody (see result obtained for number of axons and axonal length in the following tables 1 and 2).
# It has been previously developed an assay system using explants of ventral spinal cord co-cultured with cortical axons in order to determine the factors involved in axonal repulsion and attraction (Castellani et al., 2000). Using this system we have shown that Sema3A secreted from the ventral spinal cord repels cortical axons. In the presence of soluble wild-type L1Fc chimeric protein however, repulsion is switched to attraction (Castellani et al., […]). In the present study, we aimed to identify the L1 interactions underlying the switching process. As Ig domains have been implicated in binding of Ig CAMs to many of their ligands (Brümmendorf and Rathjen, 1996) we hypothesized that they would also be required for L1 Fc-mediated switching. […] L1 Fc chimeras containing pathological missense mutations affecting specific Ig domains (De Angelis et al., 1999 and FIGS. 1A, 1B) were assessed for their ability to reverse Sema3A repulsion to attraction.
# full length human L1 = target: T2, full length human L1 (Homo sapiens, UniProt P32004); test: Binding of L1Fc chimeras to COS cells expressing wild-type L1 (immunofluorescence)
# T2 construct: transiently transfected with expression vectors encoding full length human L1; expressed in transfected cells; host or cells: COS7
# T2 sequence (P32004 20-1257): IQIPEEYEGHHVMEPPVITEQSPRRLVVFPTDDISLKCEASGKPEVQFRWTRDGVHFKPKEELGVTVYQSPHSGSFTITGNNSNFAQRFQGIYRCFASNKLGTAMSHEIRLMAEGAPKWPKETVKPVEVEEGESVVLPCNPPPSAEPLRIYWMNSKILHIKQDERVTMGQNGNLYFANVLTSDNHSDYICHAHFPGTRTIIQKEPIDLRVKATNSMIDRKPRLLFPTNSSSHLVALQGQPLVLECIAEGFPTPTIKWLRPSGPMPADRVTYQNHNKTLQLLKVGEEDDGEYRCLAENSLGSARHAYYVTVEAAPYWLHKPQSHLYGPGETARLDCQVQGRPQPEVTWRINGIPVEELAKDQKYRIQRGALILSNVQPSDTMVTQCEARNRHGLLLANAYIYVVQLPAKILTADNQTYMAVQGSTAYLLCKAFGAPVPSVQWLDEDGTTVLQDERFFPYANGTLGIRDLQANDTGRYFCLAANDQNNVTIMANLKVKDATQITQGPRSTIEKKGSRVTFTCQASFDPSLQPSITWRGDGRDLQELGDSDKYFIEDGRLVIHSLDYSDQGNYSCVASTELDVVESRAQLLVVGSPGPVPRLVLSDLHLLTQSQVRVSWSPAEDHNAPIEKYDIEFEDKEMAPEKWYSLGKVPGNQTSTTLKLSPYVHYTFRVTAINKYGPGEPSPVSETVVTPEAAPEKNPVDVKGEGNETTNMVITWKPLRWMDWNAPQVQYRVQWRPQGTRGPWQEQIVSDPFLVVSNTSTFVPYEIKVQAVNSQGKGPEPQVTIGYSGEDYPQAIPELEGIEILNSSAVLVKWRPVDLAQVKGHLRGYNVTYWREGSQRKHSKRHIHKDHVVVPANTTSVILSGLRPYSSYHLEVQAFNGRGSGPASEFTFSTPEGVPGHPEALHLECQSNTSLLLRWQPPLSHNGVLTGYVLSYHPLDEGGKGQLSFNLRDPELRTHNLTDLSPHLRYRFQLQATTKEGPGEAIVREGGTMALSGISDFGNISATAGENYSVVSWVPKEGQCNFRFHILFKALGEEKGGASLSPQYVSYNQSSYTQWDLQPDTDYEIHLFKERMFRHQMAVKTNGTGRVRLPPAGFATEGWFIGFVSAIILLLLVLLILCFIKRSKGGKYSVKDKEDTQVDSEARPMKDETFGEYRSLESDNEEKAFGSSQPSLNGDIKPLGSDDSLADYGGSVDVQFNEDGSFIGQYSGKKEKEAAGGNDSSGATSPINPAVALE
# Method: (§1) The mutant L1Fc chimeras were produced and purified as described previously (De Angelis et al., 1999). Briefly, COS-7 cells were transiently transfected with 10 μg DNA per 150 mm culture dish, the soluble Fc chimeric protein was allowed to accumulate in the media for 6 days and was recovered and purified by protein A-Sepharose affinity chromatography. In the binding experiments, L1Fcs were cross-linked to anti-human Fc antibodies (50 μg/ml, Jackson Immunoresearch) for 1 hr at 37° C. Binding detection to NP-1 requested concentrations of L1Fcs 10 folds higher than L1. Antibody conjugated L1-Fc protein was then incubated with monolayers of COS7 cells transiently transfected with expression vectors encoding full length human L1 or myc-tagged NP-1 where the cytoplasmic domain is deleted (gift of J. Raper, 2000 and Renzi et al., 1999). Following incubation, the cells were fixed with 4% PFA, and processed for double-immunofluorescence detection. NP-1 was detected using a mouse anti-c myc antibody (clone 9E10, Sigma) and L1 using a rat monoclonal anti-L1 antibody. Secondary antibody anti-c-myc (Texas-red conjugated anti-mouse antibodies) was used to detect NP-1, anti-L1 (Texas red conjugated anti-rat antibodies) to detect L1, and anti-Fc (FITC conjugated anti-rabbit antibodies) to detect bound L1Fc chimeras. After secondary antibody incubation, the cells were washed with PBS and mounted in Mowiol (Calbiochem).
# Thus, Ig CAMs F3 and TAG-1 (the rodent homologue of axonin-1) ate unlikely to be axonal receptors for L1Fc in the reversion process. […] In the present study however, mutated L1Fc proteins were required to interact with wild-type L1 expressed on growth cones. To formally exclude a role for homophilic binding of L1 in the initiation of the reversion process, it was therefore necessary to examine whether homophilic binding of the mutated L1Fc chimeras to wild-type L1 was also disrupted. Mutated L1Fcs were therefore incubated with COS7 cells transfected with full-length wild-type L1 cDNA and binding was assessed by immunofluorescence. In parallel, homophilic binding of mutant/mutant and mutant/wild-type L1Fcs was compared in a two-color FACS aggregation assay, allowing a quantitative assessment to be made (see Methods). […] Similarly, in the two color FACS assay homophilic binding was restored to 74.4% and 90.5% of wild-type levels for A426D and H210Q respectively (FIG. 2B). […] This mutation however still promoted the L1 Fc induced switching of Sema3A repulsion to attraction in the co-culture assay. Thus, the ability of L1Fc to switch Sema3A repulsion is not dependent on homophilic binding. Consequently, the trans interaction of L1Fc with L1 in the receptor complex is not required for the change in growth cone responsiveness to Sema3A.
# wild-type L1 = test: Two-color FACS aggregation assay (homophilic binding); settings: mixed aggregates at the 30-minute time-point; mutant/wild-type
# Chain of wild-type L1 (P32004 with tags, fused parts or gaps limits assumed): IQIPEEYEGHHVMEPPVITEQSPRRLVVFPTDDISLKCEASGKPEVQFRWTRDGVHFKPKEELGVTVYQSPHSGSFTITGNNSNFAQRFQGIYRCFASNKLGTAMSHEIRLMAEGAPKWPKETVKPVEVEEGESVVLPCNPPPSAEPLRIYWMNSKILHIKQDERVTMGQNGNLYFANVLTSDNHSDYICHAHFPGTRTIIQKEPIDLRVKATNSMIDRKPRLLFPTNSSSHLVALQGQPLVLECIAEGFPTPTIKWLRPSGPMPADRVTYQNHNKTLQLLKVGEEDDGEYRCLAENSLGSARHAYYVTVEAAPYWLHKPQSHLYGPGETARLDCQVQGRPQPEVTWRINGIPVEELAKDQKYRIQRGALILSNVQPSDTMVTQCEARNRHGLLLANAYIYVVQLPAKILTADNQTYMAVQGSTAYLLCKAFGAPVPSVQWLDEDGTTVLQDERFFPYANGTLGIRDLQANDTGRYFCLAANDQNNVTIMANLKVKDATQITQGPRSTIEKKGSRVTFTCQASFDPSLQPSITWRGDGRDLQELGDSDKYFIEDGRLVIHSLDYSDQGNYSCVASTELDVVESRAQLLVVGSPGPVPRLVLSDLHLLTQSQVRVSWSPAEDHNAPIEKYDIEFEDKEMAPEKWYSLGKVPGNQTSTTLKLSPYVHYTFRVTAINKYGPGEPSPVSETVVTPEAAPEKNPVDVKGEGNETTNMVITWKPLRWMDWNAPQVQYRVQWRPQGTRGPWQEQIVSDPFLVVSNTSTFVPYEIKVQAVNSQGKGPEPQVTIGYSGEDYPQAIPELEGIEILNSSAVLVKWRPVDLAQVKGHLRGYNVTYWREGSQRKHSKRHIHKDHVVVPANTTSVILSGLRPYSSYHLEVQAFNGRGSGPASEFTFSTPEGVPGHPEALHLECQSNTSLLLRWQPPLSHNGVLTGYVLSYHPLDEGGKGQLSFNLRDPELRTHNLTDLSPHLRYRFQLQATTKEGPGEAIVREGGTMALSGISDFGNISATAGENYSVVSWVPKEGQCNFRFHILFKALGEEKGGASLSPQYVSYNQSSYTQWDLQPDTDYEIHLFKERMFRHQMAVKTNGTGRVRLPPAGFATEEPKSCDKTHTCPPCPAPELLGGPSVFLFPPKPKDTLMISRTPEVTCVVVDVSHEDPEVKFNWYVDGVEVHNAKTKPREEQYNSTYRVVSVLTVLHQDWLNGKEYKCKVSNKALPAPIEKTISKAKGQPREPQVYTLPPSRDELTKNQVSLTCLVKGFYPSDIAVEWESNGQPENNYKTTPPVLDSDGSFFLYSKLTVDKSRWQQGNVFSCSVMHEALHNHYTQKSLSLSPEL
# Method: A two-color aggregation assay was developed, modified from the homophilic binding assay described by De Angelis et al. (1999). For the two-color assay, red and green fluorescent microsphere beads (0.6 um, Duke Scientific Corps.) were coated with anti-human IgG antibody (Fc specific; Sigma, 1-2136). 2.5 μg of wild type (red beads) or mutant (green beads) L1Fc-proteins were conjugated to 10 μl of antibody-coated beads by incubating for 2 hrs at 37° C. Excess unbound protein was removed by washing with PBS/5% FCS. For each mutant, a 1:1 mixture of wild-type L1 and mutant L1 coated beads was prepared, dissaggregated to produce a single bead suspension and allowed to form mixed aggregates at 37° C. with samples removed in duplicate over a 30-minute time course. Samples were diluted 1:5000 into ice cold PBS and the proportion of 2 colour aggregates was assessed using a fluorescence activated cell sorter (Becton Dickenson FACSort). Ten thousand particles were counted per sample and categorised as red only (WT-L1: WT-L1), green only (Mutant L1: Mutant L1) or mixed aggregates. Every mutant protein was assayed at least 3 separate times and standardised to a wild-type control conducted in parallel.
# NP-1 = test: Binding of L1Fc chimeras to NP-1 expressing COS7 cells (immunofluorescence)
# Method: as §1
# Next, we examined the ability of the mutant L1 Fc chimeras to bind NP-1. COS7 cells were transfected with a vector encoding the extracellular and transmembrane domains of NP-1 fused to a myc tag (ANP-1, Renzi et al., J. Neurosci., 15:7870-7880, 1999), and incubated with the mutant L1Fc chimeras. Binding was detected by immunofluorescence. […] Binding of L120V, G121S and A426D L1Fcs to NP-1 is illustrated in FIG. 3.
# L1 = settings: mutant bound to itself; cited from earlier work
# F3, axonin-1 and TAX-1 = settings: F3, axonin-1 (and TAX-1 where stated); cited from earlier work
molecule,measurement,setting,value
B1,"homophilic binding, percent of wild-type levels",[1],74.4 % of wild-type levels
B2,switching of Sema3A repulsion to attraction by L1Fc chimera,[2],unable to switch the repulsive activity of Sema3A to attraction; also recorded: abrogated the reversal of Sema3A repulsion to attraction; also recorded: failed to reverse Sema3A effect
same,guidance index,"[2]; qualitative index from −2 (repulsion) to +2 (attraction), L1Fc chimeras 3 μg/ml, ODQ 10^−5M",−1.3
same,binding to wild-type L1 expressed in COS cells,full length human L1,bound to wild-type L1
same,"homophilic binding to wild-type L1, percent of wild-type levels",wild-type L1,100%
same,binding to NP-1 expressing cells,NP-1,did not
same,binding to NP-1 expressing cells,NP-1; listed as L120V-L1Fc,did not bind NP-1
same,effect of mutation on homophilic binding,L1,does not affect
same,effect of mutation on heterophilic binding,"F3, axonin-1 and TAX-1",does not affect
B3,switching of Sema3A repulsion to attraction by L1Fc chimera,[2],able to reverse Sema3A repulsion to attraction; also recorded: efficiently induce switching of Sema3A repulsion to attraction; also recorded: switched Sema3A from repulsion to attraction to the same extent as wild type L1Fc
same,binding to NP-1 expressing cells,NP-1,bound NP-1 expressing cells
same,effect of mutation on heterophilic binding,"F3, axonin-1 and TAX-1",affect
B4,switching of Sema3A repulsion to attraction by L1Fc chimera,[2],able to reverse Sema3A repulsion to attraction; also recorded: efficiently induce switching of Sema3A repulsion to attraction; also recorded: switched Sema3A from repulsion to attraction to the same extent as wild type L1Fc
same,binding to wild-type L1 expressed in COS cells,full length human L1,bound to wild-type L1
same,binding to NP-1 expressing cells,NP-1,bound to NP-1 expressing cells
same,effect of mutation on homophilic binding,L1,reduce homophilic binding
same,effect of mutation on heterophilic binding,"F3, axonin-1 and TAX-1",reduce
B5,"homophilic binding, percent of wild-type levels",[1],90.5 % of wild-type levels
